# The supplement of paper PMC10724198
# ± gives the standard deviation of the averaged measurements.
# Test system: Saccharomyces cerevisiae
# Assay: protein stability index of tFT-peptide fusion (C-terminal peptide) (PSI (0-1 scale)); higher = more stable (slower turnover)
# Conditions: genetic background: wild type; temperature: 30 C
# 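Further: PSI is a weighted mean of sequencing reads over stability bins, variants kept only with over 10 reads, mCherry proximal and sfGFP distal, peptide attached via GGGS linker.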
row,Sequence,protein stability index
1,PCPAPPPASSSP,0.728 ± 0.16
2,PPPRPPRPPLPS,0.727 ± 0.02
3,PSKGKYKKMGPR,0.661 ± 0.076
4,SLYPRALDFGPM,0.692 ± 0.033
5,PLSPPPPFPFPP,0.71 ± 0.064
6,FSGFGERFMISS,0.6917 ± 0.0033
7,PPPPPPPRPLTP,0.68 ± 0.059
8,PSVLPPPSPASY,0.668 ± 0.094
9,PKTSTPPPTSPA,0.675 ± 0.0073
10,GGRVGGSMGVGG,0.659 ± 0.028
11,SCEIDKMYLPLR,0.701 ± 0.031
12,QGTCSQSIEAHF,0.706 ± 0.14
13,CYRLFPLSSFIP,0.689 ± 0.085
14,PPPPPPPSSPPP,0.732 ± 0.012
15,SSLWGAGGRGID,0.706 ± 0.011
16,KIANNEIEYARD,0.598 ± 0.037
17,RGGGAARGGGVG,0.658 ± 0.009
18,LSTCVAESIEST,0.68 ± 0.01
19,GKSLLPATYDYY,0.677 ± 0.04
20,KKKKKINRKKKK,0.705 ± 0.14
21,VGKFGGAGGICQ,0.685 ± 0.013
22,RCKCGDALTVIH,0.691 ± 0.016
23,GALVGWAMALGW,0.679 ± 0.033
24,FGARKVELRWMV,0.53 ± 0.0092
25,TWRRAVSERPYP,0.725 ± 0.1
26,ARLAVTLLISPS,0.604 ± 0.016

row,Sequence,protein stability index
1,SNRLIKKKKKRI,0.715 ± 0.036
2,SCHVRPPVPRPS,0.663 ± 0.018
3,FMLRTCFLTTSK,0.718 ± 0.027
4,HNSRTVPISVSV,0.528 ± 0.038
5,LHPPLPRPPYPP,0.66 ± 0.029
6,EEEAETRHSMVY,0.738 ± 0.041
7,DKRRSMSGGNMD,0.68 ± 0.024
8,VFSPVLVCKMGE,0.698 ± 0.024
9,PCDWEGCVAMNV,0.649 ± 0.055
10,PPHPAPPLQPQT,0.64 ± 0.14
11,DCAVNYVGRRRR,0.702 ± 0.057
12,VFTCTGVLFGGM,0.768 ± 0.12
13,PESPGSPEIRHR,0.75 ± 0.053
14,RGGWRGVWGHVV,0.599 ± 0.033
15,VSGNLITLRCFT,0.59604 ± 0.00021
16,RVGAVCWSIGLL,0.68 ± 0.03
17,ALPARFSSFRLP,0.678 ± 0.019
18,SCLALLSLLIDF,0.57 ± 0.021
19,EDLVREKRKCEK,0.694 ± 0.043
20,FGLVYCSGLTVS,0.54 ± 0.0079
21,RRCRPPTRRTKE,0.587 ± 0.053
22,NSTERDNGIRKE,0.6686 ± 0.0065
23,FSVDASLPLSSV,0.6749 ± 0.0063
24,RNIKIGKYMKRI,0.729 ± 0.034
25,YCLLGHIYKPLS,0.679 ± 0.011
26,PPSPTPPLPSCP,0.702 ± 0.029

row,Sequence,protein stability index
1,STFRICTGVPRP,0.729 ± 0.0093
2,TIATASWILRRL,0.624 ± 0.0045
3,GAMLAGRQGGGL,0.655 ± 0.0089
4,FVFQYVVGNFAI,0.617 ± 0.051
5,SSPPSPPPLTLY,0.687 ± 0.02
6,EVVRTWAVVEGG,0.646 ± 0.11
7,LTPFFSRPSVLL,0.72 ± 0.019
8,APAPPPVSSASL,0.665 ± 0.013
9,AETYASFHLTDP,0.712 ± 0.042
10,PPPHGPPPPPLP,0.648 ± 0.055
11,GCGLVGVVTGRD,0.71 ± 0.14
12,SPFSPLPSPRPR,0.723 ± 0.018
13,SCGKGVGRWRLG,0.6721 ± 0.0029
14,GGAGGTGVRCGT,0.669 ± 0.017
15,VGGGGVGAGVWG,0.653 ± 0.086
16,GTHGQAQRVAGQ,0.7248 ± 0.0061
17,GVSAGGAGLGGS,0.773 ± 0.0031
18,GVLSLFLLDTSQ,0.7376 ± 0.0061
19,CSKERAPGPSSG,0.705 ± 0.075
20,IRIKKGMETGKL,0.69 ± 0.0084
21,LHETKRQKKRKR,0.7187 ± 0.0062
22,PPHPPRCRRSPC,0.718 ± 0.037
23,RRCCLDPGGLLS,0.607 ± 0.0078
24,NFFTLTRCTLFI,0.66684 ± 0.00029
25,SVWFSFVKVRGG,0.612 ± 0.0037
26,PFCGSPARTTAV,0.642 ± 0.052

row,Sequence,protein stability index
1,GLDHRLALLYPS,0.736 ± 0.036
2,LRRAFPSSTPLK,0.698 ± 0.088
3,AQTTRGGRRGDE,0.657 ± 0.034
4,SSVFPSSPAFLP,0.691 ± 0.0099
5,SIIRWSKRTEES,0.695 ± 0.049
6,YASKQNPKPPSP,0.682 ± 0.039
7,WFGSPRCVGGQL,0.703 ± 0.03
8,KSEKQKSNRKEF,0.686 ± 0.071
9,FSELTGFMSVRG,0.652 ± 0.025
10,VAYSKWIGEIRD,0.71 ± 0.038
11,GVLGCNDGSVVE,0.663 ± 0.059
12,NNKNNKNKIYKK,0.679 ± 0.0091
13,AKGVYFPIKGIY,0.6436 ± 0.004
14,GANKQHLARKTE,0.7254 ± 0.0069
15,GLDEVKVVSKKK,0.689 ± 0.051
16,LCSTSLTPMRPT,0.699 ± 0.021
17,GAARTPGRARTL,0.685 ± 0.049
18,CEITISQEQSAS,0.624 ± 0.022
19,MDIVIGSQTEAN,0.7365 ± 0.0036
20,KDNCHSNQRELT,0.663 ± 0.046
21,GLCCFWSYRASR,0.687 ± 0.035
22,PPAPSSLPSPPS,0.715 ± 0.017
23,PHPRRSTKTQRR,0.7878 ± 0.0045
24,HRLQGQGAWYVT,0.643 ± 0.061
25,PAPPSPPPHSSP,0.751 ± 0.063
26,ARPSPPAILVPS,0.586 ± 0.017

row,Sequence,protein stability index
1,PFCKTDHMSMTV,0.682 ± 0.039
2,SAFLSFLRLVFL,0.632 ± 0.011
3,TPHNQPKPTPPC,0.698 ± 0.032
4,SNGVCVGGSESA,0.674 ± 0.082
5,CHSIEGSEPREA,0.694 ± 0.085
6,IMKKKKNKARDI,0.75 ± 0.055
7,RLFIALFPPFYL,0.64 ± 0.05
8,LPVSPDTLSPPL,0.678 ± 0.022
9,TMSPPSTSGGMG,0.6855 ± 0.0042
10,LRFSFFSSLFVL,0.516 ± 0.019
11,SLGSISSATLLA,0.6117 ± 0.0026
12,RSTTRSTLSLHV,0.701 ± 0.021
13,FSLVHSFRLSFC,0.599 ± 0.012
14,GKEEGRETGREG,0.741 ± 0.038
15,IGTGHPRTGLSR,0.682 ± 0.031
16,PPLPPPTPRPAP,0.754 ± 0.058
17,VPRPLPPSPLLV,0.644 ± 0.13
18,TSTHSFLDFGTG,0.6272 ± 0.0011
19,THSLSCPPRNPP,0.647 ± 0.07
20,PPHIIPHPKAHT,0.687 ± 0.017
21,SFVVFGSFFCFC,0.572 ± 0.018
22,VQGGSSCLWSVR,0.72 ± 0.01
23,VGVVGGRWCGRG,0.648 ± 0.0099
24,KQRGSNYGCGYG,0.615 ± 0.026
25,QEKSLSHTQRYR,0.762 ± 0.072
26,GVQEGGGGARGG,0.633 ± 0.023

row,Sequence,protein stability index
1,LFSLFLRSPLTS,0.664 ± 0.035
2,GCIELTGHLGSF,0.7059 ± 0.0036
3,HPISLSYPSPFV,0.665 ± 0.13
4,PDAGTSSLQTLT,0.722 ± 0.036
5,WFRMTFLSPLHD,0.797 ± 0.044
6,ALGQWGCAELHG,0.709 ± 0.0075
7,PFLAWTILPLTY,0.701 ± 0.0074
8,IIRSKGTKSMHK,0.691 ± 0.013
9,RGRCGRLSRAGA,0.727 ± 0.041
10,LNIPARVSGAVV,0.636 ± 0.017
11,SVIGLNLVGMGW,0.641 ± 0.046
12,YPLPPLFLPLLL,0.675 ± 0.046
13,VGGWWAREVVEL,0.753 ± 0.0085
14,PANGKQNRGKRR,0.645 ± 0.078
15,EGRRAGRVGTQV,0.688 ± 0.024
16,TPHRVGRAAATR,0.675 ± 0.02
17,RALNRVWLSRRV,0.607 ± 0.02
18,HLSSPPSLLPPP,0.657 ± 0.05
19,GARWGWGRKGSR,0.692 ± 0.072
20,FGSVFMSFFLCS,0.522 ± 0.037
21,AHRLTKVIILFG,0.67 ± 0.1
22,GSGVVCTMGWRL,0.6856 ± 0.0068
23,VCNLIRILSLVI,0.496 ± 0.031
24,TSSTATWSYRNY,0.673 ± 0.036
25,KNDKHQTRKSTT,0.703 ± 0.11
26,KEEAQKMKKIGE,0.752 ± 0.096

row,Sequence,protein stability index
1,EGTPLTIQRIGE,0.666 ± 0.094
2,RTRKARTHGRAQ,0.679 ± 0.0092
3,SPPPPRLPSPTP,0.744 ± 0.054
4,NMVIRLIEKRKK,0.663 ± 0.021
5,PTPPPQPTPHTP,0.705 ± 0.035
6,VTFRTFFVPTFK,0.662 ± 0.097
7,GWGGSIGEEWGG,0.687 ± 0.022
8,REWDRRGRSHHF,0.769 ± 0.069
9,HGGEPHPSFGFS,0.697 ± 0.062
10,LARGPDETPAGA,0.668 ± 0.18
11,WLRVLFPSSPGD,0.607 ± 0.04
12,CGQEQGCEGAVD,0.658 ± 0.12
13,QDSANLSPSFPF,0.724 ± 0.048
14,GSGAICAFGFWC,0.6599 ± 0.0041
15,FHLPLSSHDPLL,0.747 ± 0.11
16,PFPSLCFPPLNG,0.727 ± 0.055
17,PRPRSPSPPLPP,0.705 ± 0.01
18,LPRVPCRLAPPP,0.689 ± 0.055
19,MSLLCPSPPFPT,0.695 ± 0.068
20,LGFVADLFVWSV,0.673 ± 0.069
21,GCGGAWGVWDGV,0.729 ± 0.072
22,PVPPPPCPPLPP,0.683 ± 0.024
23,GRRWVGAVVEGV,0.684 ± 0.043
24,LPPLPHLLSLYL,0.658 ± 0.076
25,REWVAGGGVVGV,0.679 ± 0.031
26,DICFTPGVVNAS,0.6587 ± 0.0038

row,Sequence,protein stability index
1,RGVGGRALGVGR,0.678 ± 0.038
2,HEGHVWGIRGTG,0.683 ± 0.11
3,VGWFELWGVSSG,0.76 ± 0.052
4,RFLLNPPLRCPP,0.747 ± 0.041
5,VRSSELFNGVWC,0.736 ± 0.093
6,FIFPPLFFSPVL,0.788 ± 0.13
7,SVLRGLCFDGYR,0.7252 ± 0.0064
8,DSFAIFFDWPAC,0.695 ± 0.0092
9,GGFNARVSPTRL,0.709 ± 0.1
10,LSLGVYMGVGRG,0.629 ± 0.0074
11,PAPCPSPPAPAV,0.708 ± 0.029
12,IVVRAGGCSVGW,0.695 ± 0.081
13,CGWIQYSVSHDL,0.712 ± 0.059
14,TSNGSGLMFQSQ,0.62 ± 0.019
15,GADGYSCGLVIT,0.539 ± 0.11
16,LAFPFSPLAPQI,0.691 ± 0.077
17,KSDSRISGTVVV,0.652 ± 0.059
18,CLLCLPPPRSLS,0.69 ± 0.034
19,PSPMHPSAHFST,0.67613 ± 0.00039
20,QSPRRQLEGKLE,0.619 ± 0.046
